Laboratory results taken from patent US20160039903A1 (Stanford University, published 2016).
Like-named read-outs stand apart in the source and are kept apart here.

T1: human PD-L2 displayed on yeast (residues 20-123) (human; S. cerevisiae, UniProt Q9BQ51 20-123)
T1 construct: also called yeast displaying hPD-L2; ectodomain of hPD-L2; not shown: Aga2 of S. cerevisiae (pYAL vector); linker and tag between not g
T1 sequence: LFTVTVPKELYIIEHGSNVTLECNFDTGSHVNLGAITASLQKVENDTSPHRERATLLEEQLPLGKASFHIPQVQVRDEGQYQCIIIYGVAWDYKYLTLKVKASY


Assays:
[1] = target: T2, human PD-L1 on cells (human, UniProt Q9NZQ7 19-290); test: flow cytometry of a dissociated CT26 hPD-L1 positive tumor 4 h after intraperitoneal injection of both labeled agents; same quadrant of the PD-L1 negative tumor: 3.97 [panel CT26, hPD-L1 positive]
T2 construct: also called hPD-L1; PD-L1 on IFNγ-induced SK-MEL-28 (SKMEL28) cells

[2] = target: T3, recombinant biotinylated human PD-L1 ectodomain (IgV and IgC domains, residues 19-239) (human, UniProt Q9NZQ7 19-239, enzymatically biotinylated (BirA) on the biotin acceptor peptide); test: surface plasmon resonance, biotinylated hPD-L1 immobilized on a streptavidin chip; column head 'PD-L1 affinity'
T3 construct: also called biotinylated hPD-L1; biotinylated PD-L1; not shown: carboxy-terminal 8x histidine tag

[3] = target: T3, recombinant biotinylated human PD-L1 …; test: as above; remark: listed apart in the source
[4] = target: T4, human PD-L1 displayed on yeast (residues 19-132) (human; S. cerevisiae, UniProt Q9NZQ7 19-132); test: competition flow cytometry on yeast displaying human PD-L1; competitor probe: labeled native PD-1 streptavidin tetramer
T4 construct: also called yeast displaying human PD-L1; not shown: Aga2 of S. cerevisiae (pYAL vector); linker and tag between not g

[5] = target: T1, human PD-L2 displayed on yeast …; test: competition flow cytometry on yeast displaying the ectodomain of hPD-L2, 100 nM PD-1 tetramer as competitor; wild-type PD-1 on yeast displaying hPD-L2
[6] = target: T3, recombinant biotinylated human PD-L1 …; test: SPR, biotinylated PD-L1 on streptavidin chip
[7] = target: T5, mouse PD-L1 on B16-F10 cells (mouse, UniProt Q9EP73 19-290); test: competition flow cytometry on murine B16-F10 cells, 100 nM PD-1 tetramer as competitor; wild-type hPD-1 on murine B16-F10 cells
T5 construct: whole, on cells; also called mPD-L1; PD-L1 on murine B16-F10 cells

[8] = target: T2, human PD-L1 on cells; test: competition flow cytometry on IFNγ-induced SK-MEL-28 cells, 100 nM labeled PD-1 tetramer as competitor
[9] = target: T1, human PD-L2 displayed on yeast …; test: competition flow cytometry on yeast displaying human PD-L2; competitor probe: labeled native PD-1 streptavidin tetramer

T3 sequence (Q9NZQ7 other isoform, or with tags, fused parts or gaps): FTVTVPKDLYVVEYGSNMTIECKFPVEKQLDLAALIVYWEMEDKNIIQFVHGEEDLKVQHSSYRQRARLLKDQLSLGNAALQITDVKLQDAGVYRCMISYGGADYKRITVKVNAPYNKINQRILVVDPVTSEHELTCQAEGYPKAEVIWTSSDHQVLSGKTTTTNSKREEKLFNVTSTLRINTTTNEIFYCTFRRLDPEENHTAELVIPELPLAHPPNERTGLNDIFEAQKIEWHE
T4 sequence (Q9NZQ7 19-132 limits assumed): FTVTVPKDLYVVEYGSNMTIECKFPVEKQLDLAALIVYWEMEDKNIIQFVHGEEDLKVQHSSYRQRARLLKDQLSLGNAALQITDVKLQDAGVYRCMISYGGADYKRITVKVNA
T2 sequence (Q9NZQ7 19-290 limits assumed): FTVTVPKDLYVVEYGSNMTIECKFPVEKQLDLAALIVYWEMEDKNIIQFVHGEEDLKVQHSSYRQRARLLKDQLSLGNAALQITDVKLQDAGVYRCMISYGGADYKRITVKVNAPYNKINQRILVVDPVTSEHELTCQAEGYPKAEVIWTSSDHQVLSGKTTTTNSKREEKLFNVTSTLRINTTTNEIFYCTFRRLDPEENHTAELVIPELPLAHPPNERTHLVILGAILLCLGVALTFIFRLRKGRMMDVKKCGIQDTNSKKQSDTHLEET
T5 sequence (Q9EP73 19-290): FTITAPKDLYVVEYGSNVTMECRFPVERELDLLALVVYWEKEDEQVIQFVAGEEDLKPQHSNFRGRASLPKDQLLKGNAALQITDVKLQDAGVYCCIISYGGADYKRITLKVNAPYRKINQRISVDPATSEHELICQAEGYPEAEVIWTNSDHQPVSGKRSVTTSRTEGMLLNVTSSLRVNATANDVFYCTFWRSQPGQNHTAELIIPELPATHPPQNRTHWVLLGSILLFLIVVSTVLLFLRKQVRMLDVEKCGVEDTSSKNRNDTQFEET

Row | Kd [2] [nM] | Kd [3] [nM] | Molecule | also measured
1 | – | – | AlexaFluor 488-conjugated anti-hPD-L1 antibody (clone 29E.2A3, BioLegend) | percent of cells in the quadrant HAC 594 negative, Anti-hPD-L1 488 positive [1]: 2.22%
2 | 7.78 | 7.78 | G1 4-1 (designed binder, also called Generation 1, clone 4-1) PD-1 variant IgV domain: DSPDRPWNPPTFSPALLVVTEGDNATFTCSFSNTSESFRLVWHRESPGYETDTLASFPEDRSTPLPDCRFRVTQLPNGRDFHMSVVRARRNDSGTYVCGAIAFHPVIQIKESLRAELRVTER | IC50 (read off the curve) [4]: ~100 nM
3 | 10.7 | 10.7 | G1 4-4 (designed binder, also called Generation 1, clone 4-4) PD-1 variant IgV domain: DSPDRPWNPPTFSPALLVVTEGDNATFTCSFSNTSESFRLVWHRESPNNHAYTLALFPEDRSLPFPDCRFRVTQLPNGRDFHMSVVRARRNDSGTYICGAITFDPRIQIKESLRAELRVTER | IC50 (read off the curve) [4]: ~100 nM
4 | 0.218 | 0.218 | G2 4-12 (designed binder, also called Generation 2, clone 4-12) PD-1 variant IgV domain: DSPDRPWNPPTFSPALLVVTEGDNATFTCSFSNTSESFHVVWHYESPSGQTDTLAAFPEDRSQPGQDARFRVTQLPNGRDFHLSVVRARRNDSGTYVCGIISLAPKIQIKESLRAELRVTER | –
5 | 0.196 | 0.196 | G2 4-5 (designed binder, also called Generation 2, clone 4-5) PD-1 variant IgV domain: DSPDRPWNPPTFSPALLVVTEGDNATFTCSFSNTSESFHVVWHRESPSSQTDTLAAFPEDRSQPGPDARFRVTQLPNGRDFQLSVVRARRNDSGTYVCGVISLAPKIQIKESLRAELRVTER | –
6 | 3880 | 3880 | wild-type human PD-1 IgV domain (residues 26-147), native PD-1 mimic polypeptide (receptor, Soluble monomer secreted from High Five insect cells; also called wild-type hPD-1; WT PD-1 monomer) DSPDRPWNPPTFSPALLVVTEGDNATFTCSFSNTSESFVLNWYRMSPSNQTDKLAAFPEDRSQPGQDCRFRVTQLPNGRDFHMSVVRARRNDSGTYLCGAISLAPKAQIKESLRAELRVTERHHHHHHHH | IC50 [5]: 2500 nM; dissociation half-life [6]: < 1 s; IC50 [7]: 2600 nM; IC50 [8]: 8200 nM
7 | 0.267 | 0.267 | G2 4-1 (Generation 2, clone 4-1) (designed binder) DSPDRPWNPPTFSPALLVVTEGDNATFTCSFSNTSESFHVVWHRESPSGQTDTLAAFPEDRSQPGPDARFRVTQLPNGRDFHLSVVRARRNDSGTYVCGAISLAPKIQIKESLRAELRVTERHHHHHHHH | binding result [9]: no binding (tested: 1e-6 M (Log[Inhibitor (M)] = -6))
8 | 0.222 | 0.222 | G2 4-2 (designed binder) DSPDRPWNPPTFSPALLVVTEGDNATFTCSFSNTSESFHIIWHRESPSGQTDTLAAFPEDRSQPGQDARFRVTQLPNGRDFHLSVVRARRNDSGTYVCGVISLAPKIQIKESLRAELRVTERHHHHHHHH | binding result [9]: no binding (tested: 1e-6 M (Log[Inhibitor (M)] = -6))
